This note sets out measurements from the supplement of paper PMC9112550, “Optimization of the antimicrobial peptide Bac7 by deep mutational scanning” (BMC Biology, 2022).

The series deals with Escherichia coli TOP10. In words: shrunken log2 fold change of peptide-encoding DNA abundance (4.5 h post-induction vs induction); higher = less antimicrobial activity (less host growth inhibition). Particulars: time post-induction: 4.5 h; library: site-saturation at positions 5, 18, 19, 20.
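Also: peptides expressed intracellularly from a pBAD plasmid library in pooled LB shake-flask culture, induced with 0.3% L-arabinose, DNA abundance read by NGS, three biological replicates, DESeq2 with apeglm shrinkage.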

As to RRIRQRPPRLPRPRPRPDRKPRP, the “shrunken log2 fold change” value is -0.085.
To RRIRNRPPRLPRPRPRPILTPRP belongs -0.135.
In the case of RRIRVRPPRLPRPRPRPTKEPRP, the “shrunken log2 fold change” value was -0.0294.
Under RRIRGRPPRLPRPRPRPSECPRP stands 0.519; under RRIRVRPPRLPRPRPRPAPAPRP, 0.626.
For RRIRFRPPRLPRPRPRPMLDPRP, the “shrunken log2 fold change” value is -0.365.
Under RRIRRRPPRLPRPRPRPEMRPRP stands 0.0735; under RRIRLRPPRLPRPRPRPYGLPRP, -0.0893; under RRIRCRPPRLPRPRPRPATDPRP, -0.112.
To RRIRSRPPRLPRPRPRPICFPRP belongs -0.15.
Under RRIRARPPRLPRPRPRPGIKPRP stands -0.0359; under RRIRWRPPRLPRPRPRPHNGPRP, -0.349.
Regarding RRIRARPPRLPRPRPRPTLAPRP, the “shrunken log2 fold change” value came to 1.65.
For the sequence RRIRDRPPRLPRPRPRPHCKPRP, the “shrunken log2 fold change” value stood at 0.0223.
Under RRIRFRPPRLPRPRPRPVMNPRP stands -0.548.
Under RRIRVRPPRLPRPRPRPTPNPRP stands 0.306; under RRIRRRPPRLPRPRPRPFCHPRP, -0.17.
In the case of RRIRMRPPRLPRPRPRPSVMPRP, the “shrunken log2 fold change” value was -0.194.
To RRIRPRPPRLPRPRPRPAEIPRP belongs 0.0712; to RRIRLRPPRLPRPRPRPDMWPRP, -0.0873; to RRIRYRPPRLPRPRPRPKCQPRP, -0.182.
To RRIRLRPPRLPRPRPRPSKVPRP belongs -0.117.
To RRIRNRPPRLPRPRPRPNIYPRP belongs -0.42; to RRIRQRPPRLPRPRPRPVEPPRP, 0.117; to RRIRYRPPRLPRPRPRPLWKPRP, -0.0695.
Regarding RRIRARPPRLPRPRPRPPLPPRP, the “shrunken log2 fold change” value stood at 0.762.
Under RRIRERPPRLPRPRPRPKNRPRP stands 0.103; under RRIRDRPPRLPRPRPRPFDPPRP, -0.119.
As to RRIRVRPPRLPRPRPRPQFDPRP, the “shrunken log2 fold change” value is -0.00843.
With RRIRNRPPRLPRPRPRPSKVPRP, the “shrunken log2 fold change” value stood at 0.0123.
Under RRIRSRPPRLPRPRPRPLCEPRP stands 0.0616.
As to RRIRKRPPRLPRPRPRPDCKPRP, the “shrunken log2 fold change” value is -0.0333.
To RRIRKRPPRLPRPRPRPTQSPRP belongs 0.441; to RRIRYRPPRLPRPRPRPLCYPRP, -1; to RRIRMRPPRLPRPRPRPWRPPRP, 0.308.
Consider RRIRGRPPRLPRPRPRPRIIPRP, for which the “shrunken log2 fold change” value turned out to be 0.0317.
Under RRIRYRPPRLPRPRPRPTDAPRP stands -0.0292.
In the case of RRIRHRPPRLPRPRPRPYGAPRP, the “shrunken log2 fold change” value was -0.48.
Under RRIRFRPPRLPRPRPRPPPVPRP stands 1.43; under RRIRGRPPRLPRPRPRPLRPPRP, 1.47.
Under RRIRSRPPRLPRPRPRPVFSPRP stands -0.43; under RRIRVRPPRLPRPRPRPACQPRP, 0.168; under RRIRKRPPRLPRPRPRPGLVPRP, 0.783.
To RRIRQRPPRLPRPRPRPAECPRP belongs 0.17.
For the sequence RRIRVRPPRLPRPRPRPDQDPRP, the “shrunken log2 fold change” value was determined as 0.0425.
Under RRIRVRPPRLPRPRPRPSKAPRP stands 0.0587; under RRIRPRPPRLPRPRPRPCGVPRP, 0.205; under RRIRGRPPRLPRPRPRPHFQPRP, -0.099.
Under RRIRYRPPRLPRPRPRPMYQPRP stands -0.124; under RRIRTRPPRLPRPRPRPGVQPRP, -0.133; under RRIRFRPPRLPRPRPRPHAYPRP, -0.118.
Under RRIRTRPPRLPRPRPRPEFAPRP stands 0.0178; under RRIRRRPPRLPRPRPRPMGRPRP, 0.464.
As for RRIRKRPPRLPRPRPRPAYRPRP, the “shrunken log2 fold change” value came to 0.0954.
Under RRIRMRPPRLPRPRPRPVIYPRP stands -0.0966.
As to RRIRRRPPRLPRPRPRPDYSPRP, the “shrunken log2 fold change” value was -0.263.
To RRIRPRPPRLPRPRPRPFNHPRP belongs -0.304; to RRIRVRPPRLPRPRPRPHDCPRP, -0.162; to RRIRWRPPRLPRPRPRPFFMPRP, -0.108.
To RRIRARPPRLPRPRPRPKALPRP belongs 0.294; to RRIRYRPPRLPRPRPRPSSWPRP, -0.284.
For the sequence RRIRLRPPRLPRPRPRPKDEPRP, the “shrunken log2 fold change” value was 0.114.
For RRIRDRPPRLPRPRPRPVYHPRP, the “shrunken log2 fold change” value was -0.0857.
As to RRIRNRPPRLPRPRPRPVTEPRP, the “shrunken log2 fold change” value was -0.0551.
To RRIRWRPPRLPRPRPRPWVKPRP belongs -0.00207.
To RRIRCRPPRLPRPRPRPWRWPRP belongs 0.568; to RRIRVRPPRLPRPRPRPELAPRP, 0.659.
To RRIRNRPPRLPRPRPRPKFLPRP belongs 0.0309; to RRIRKRPPRLPRPRPRPMMQPRP, 0.405.
Consider RRIRCRPPRLPRPRPRPIPWPRP, for which the “shrunken log2 fold change” value is -0.146.
To RRIRKRPPRLPRPRPRPTHRPRP belongs 1.15.
Take RRIRARPPRLPRPRPRPEKMPRP: the “shrunken log2 fold change” value was found to be 0.706.
To RRIRYRPPRLPRPRPRPNGNPRP belongs -0.561; to RRIRYRPPRLPRPRPRPWRPPRP, -0.0287.
To RRIRARPPRLPRPRPRPYFIPRP belongs -0.73; to RRIRYRPPRLPRPRPRPCVYPRP, -0.197.
To RRIRSRPPRLPRPRPRPRRIPRP belongs 0.135; to RRIRKRPPRLPRPRPRPGYCPRP, -0.275; to RRIRNRPPRLPRPRPRPTNGPRP, -0.0138.
For RRIRIRPPRLPRPRPRPDDPPRP, the “shrunken log2 fold change” value was -0.0328.
Under RRIRMRPPRLPRPRPRPMATPRP stands 0.0129.
With RRIRGRPPRLPRPRPRPDASPRP, the “shrunken log2 fold change” value is 1.34.
Under RRIRIRPPRLPRPRPRPTAHPRP stands -0.313.
To RRIRDRPPRLPRPRPRPIPWPRP belongs 0.077; to RRIRQRPPRLPRPRPRPMSDPRP, -0.0194; to RRIRHRPPRLPRPRPRPSTAPRP, -0.24.
As to RRIRMRPPRLPRPRPRPWTWPRP, the “shrunken log2 fold change” value was -0.0795.
In the case of RRIRPRPPRLPRPRPRPTFEPRP, the “shrunken log2 fold change” value is 0.035.
With RRIRWRPPRLPRPRPRPLSTPRP, the “shrunken log2 fold change” value is 0.383.
Under RRIRERPPRLPRPRPRPKHNPRP stands -0.587; under RRIRLRPPRLPRPRPRPYKYPRP, 0.0639; under RRIRLRPPRLPRPRPRPQFQPRP, -0.0476.
Under RRIRARPPRLPRPRPRPYRDPRP stands -0.761.
To RRIRHRPPRLPRPRPRPICFPRP belongs -0.114; to RRIRLRPPRLPRPRPRPVIHPRP, -1.64.
Consider RRIRERPPRLPRPRPRPEWMPRP, for which the “shrunken log2 fold change” value is 0.171.
Take RRIRERPPRLPRPRPRPRQWPRP: the “shrunken log2 fold change” value is -0.0536.
Under RRIRERPPRLPRPRPRPRSKPRP stands 0.00172; under RRIRKRPPRLPRPRPRPMCAPRP, 0.583.
To RRIRSRPPRLPRPRPRPEAKPRP belongs 0.401; to RRIRARPPRLPRPRPRPQRRPRP, 0.366; to RRIRHRPPRLPRPRPRPQHGPRP, 0.00949.
To RRIRHRPPRLPRPRPRPHHTPRP belongs -0.71; to RRIRERPPRLPRPRPRPIAAPRP, 0.466.
As to RRIRCRPPRLPRPRPRPSGKPRP, the “shrunken log2 fold change” value is -0.327.
Under RRIRLRPPRLPRPRPRPNWLPRP stands 0.0723; under RRIRCRPPRLPRPRPRPKNHPRP, -0.461.
To RRIRLRPPRLPRPRPRPTPLPRP belongs 0.296.
Consider RRIRVRPPRLPRPRPRPWHAPRP, for which the “shrunken log2 fold change” value was -0.109.
Under RRIRTRPPRLPRPRPRPGECPRP stands -0.258; under RRIRVRPPRLPRPRPRPKRKPRP, 0.376; under RRIRHRPPRLPRPRPRPYQNPRP, 0.0439.
Under RRIRDRPPRLPRPRPRPGVCPRP stands 0.358.
To RRIRARPPRLPRPRPRPVRDPRP belongs 0.315; to RRIRHRPPRLPRPRPRPMNMPRP, -0.00968.
For RRIRWRPPRLPRPRPRPGLSPRP, the “shrunken log2 fold change” value was -0.0318.
As to RRIRQRPPRLPRPRPRPVQAPRP, the “shrunken log2 fold change” value is -0.0131.
Under RRIRARPPRLPRPRPRPISLPRP stands -0.0678; under RRIRRRPPRLPRPRPRPKHDPRP, 1.2; under RRIRKRPPRLPRPRPRPIITPRP, 0.0225.
On to RRIRDRPPRLPRPRPRPLNCPRP, for which the “shrunken log2 fold change” value is -0.0225.
Under RRIRKRPPRLPRPRPRPDPNPRP stands 0.0802.
For RRIRARPPRLPRPRPRPFHNPRP, the “shrunken log2 fold change” value is -0.625.
To RRIRNRPPRLPRPRPRPTPIPRP belongs 0.189.
Under RRIRARPPRLPRPRPRPYYIPRP stands -0.409.
